{"source": "patent US7252930", "about": "(Takeda / Millennium, dated 2007)", "proteins": {"B1": {"name": "MvaS (HMG-CoA Synthase) from Enterococcus faecalis, full length with non-cleavable carboxy-terminal six histidine tag, seleno-methionine labeled (enzyme)", "chain": "MTIGIDKISFFVPPYYIDMTALAEARNVDPGKFHIGIGQDQMAVNPISQDIVTFAANAAEAILTKEDKEAIDMVIVGTESSIDESKAAAVVLHRLMGIQPFARSFEIKEACYGATAGLQLAKNHVALHPDKKVLVVAADIAKYGLNSGGEPTQGAGAVAMLVASEPRILALKEDNVMLTQDIYDFWRPTGHPYPMVDGPLSNETYIQSFAQVWDEHKKRTGLDFADYDALAFHIPYTKMGKKALLAKISDQTEAEQERILARYEESIVYSRRVGNLYTGSLYLGLISLLENATTLTAGNQIGLFSYGSGAVAEFFTGELVAGYQNHLQKETHLALLDNRTELSIAEYEAMFAETLDTDIDQTLEDELKYSISAINNTVRSYRNKGHHHHHH", "modifications": "seleno-methionine in place of methionine (100% incorporation by MS); observed mass corresponds to protein without N-terminal methionine", "notes": "It was crystallized as a complex with the small molecule HMG-CoA; There are two MvaS molecules (A and B) in the asymmetric unit, described as a dimer; also called MvaS Ef"}}, "molecular_target": "the molecule itself", "assay": "X-ray crystal structure, homodimer in the asymmetric unit", "data": [{"protein": "B1", "values": [{"measurement": "binding result", "value": "binds"}]}]}
